# Results: patent EP2014310A2 (Dyax Corporation, dated 2009)
# Bridge positions count the residues as written; N and C are the ends. I, II: the chains in the order shown. * marks the point of attachment. ivDde = CC(C)CC(=C1C(=O)CC(C)(C)CC1=O)*
# Legend:
# [1] = target: T1, human KDR-Fc fusion (R&D Systems #357-KD-050) (human, UniProt P35968 20-764); experiment: phage binding screen on KDR-Fc; class legend in paragraph 246
# T1 construct: bought
# [2] = target: T1, human KDR-Fc fusion (R&D Systems …); experiment: fluorescence anisotropy, fluorescein-labeled peptide
# [3] = target: KDR on human umbilical vein endothelial cells (HUVECs) (human, UniProt P35968 20-1356); experiment: cell-based or functional assay
# [4] = target: T1, human KDR-Fc fusion (R&D Systems …); experiment: Biacore, KDR-Fc on CM5 chip, unlabeled peptide
# T1 sequence (P35968 20-764): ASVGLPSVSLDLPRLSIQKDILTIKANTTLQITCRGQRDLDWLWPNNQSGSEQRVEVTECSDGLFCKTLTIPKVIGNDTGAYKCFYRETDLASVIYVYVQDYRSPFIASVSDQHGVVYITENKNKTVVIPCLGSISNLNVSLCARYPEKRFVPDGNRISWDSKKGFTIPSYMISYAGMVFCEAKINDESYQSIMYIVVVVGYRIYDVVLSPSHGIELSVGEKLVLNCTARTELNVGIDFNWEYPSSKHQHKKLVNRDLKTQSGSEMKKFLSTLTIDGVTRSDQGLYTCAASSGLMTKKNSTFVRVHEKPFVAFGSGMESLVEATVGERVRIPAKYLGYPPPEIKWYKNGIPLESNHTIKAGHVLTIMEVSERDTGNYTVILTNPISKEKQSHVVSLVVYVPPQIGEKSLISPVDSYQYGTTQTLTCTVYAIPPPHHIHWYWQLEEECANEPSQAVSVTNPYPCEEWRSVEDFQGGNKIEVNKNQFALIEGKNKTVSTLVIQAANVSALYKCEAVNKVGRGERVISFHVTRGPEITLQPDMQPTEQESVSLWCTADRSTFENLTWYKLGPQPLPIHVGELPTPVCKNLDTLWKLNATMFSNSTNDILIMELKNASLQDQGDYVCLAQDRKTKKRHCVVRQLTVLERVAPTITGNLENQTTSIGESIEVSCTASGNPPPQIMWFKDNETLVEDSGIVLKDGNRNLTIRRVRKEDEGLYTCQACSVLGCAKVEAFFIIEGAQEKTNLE
# KDR on human umbilical vein endothelial cells (HUVECs), sequence (P35968 20-1356): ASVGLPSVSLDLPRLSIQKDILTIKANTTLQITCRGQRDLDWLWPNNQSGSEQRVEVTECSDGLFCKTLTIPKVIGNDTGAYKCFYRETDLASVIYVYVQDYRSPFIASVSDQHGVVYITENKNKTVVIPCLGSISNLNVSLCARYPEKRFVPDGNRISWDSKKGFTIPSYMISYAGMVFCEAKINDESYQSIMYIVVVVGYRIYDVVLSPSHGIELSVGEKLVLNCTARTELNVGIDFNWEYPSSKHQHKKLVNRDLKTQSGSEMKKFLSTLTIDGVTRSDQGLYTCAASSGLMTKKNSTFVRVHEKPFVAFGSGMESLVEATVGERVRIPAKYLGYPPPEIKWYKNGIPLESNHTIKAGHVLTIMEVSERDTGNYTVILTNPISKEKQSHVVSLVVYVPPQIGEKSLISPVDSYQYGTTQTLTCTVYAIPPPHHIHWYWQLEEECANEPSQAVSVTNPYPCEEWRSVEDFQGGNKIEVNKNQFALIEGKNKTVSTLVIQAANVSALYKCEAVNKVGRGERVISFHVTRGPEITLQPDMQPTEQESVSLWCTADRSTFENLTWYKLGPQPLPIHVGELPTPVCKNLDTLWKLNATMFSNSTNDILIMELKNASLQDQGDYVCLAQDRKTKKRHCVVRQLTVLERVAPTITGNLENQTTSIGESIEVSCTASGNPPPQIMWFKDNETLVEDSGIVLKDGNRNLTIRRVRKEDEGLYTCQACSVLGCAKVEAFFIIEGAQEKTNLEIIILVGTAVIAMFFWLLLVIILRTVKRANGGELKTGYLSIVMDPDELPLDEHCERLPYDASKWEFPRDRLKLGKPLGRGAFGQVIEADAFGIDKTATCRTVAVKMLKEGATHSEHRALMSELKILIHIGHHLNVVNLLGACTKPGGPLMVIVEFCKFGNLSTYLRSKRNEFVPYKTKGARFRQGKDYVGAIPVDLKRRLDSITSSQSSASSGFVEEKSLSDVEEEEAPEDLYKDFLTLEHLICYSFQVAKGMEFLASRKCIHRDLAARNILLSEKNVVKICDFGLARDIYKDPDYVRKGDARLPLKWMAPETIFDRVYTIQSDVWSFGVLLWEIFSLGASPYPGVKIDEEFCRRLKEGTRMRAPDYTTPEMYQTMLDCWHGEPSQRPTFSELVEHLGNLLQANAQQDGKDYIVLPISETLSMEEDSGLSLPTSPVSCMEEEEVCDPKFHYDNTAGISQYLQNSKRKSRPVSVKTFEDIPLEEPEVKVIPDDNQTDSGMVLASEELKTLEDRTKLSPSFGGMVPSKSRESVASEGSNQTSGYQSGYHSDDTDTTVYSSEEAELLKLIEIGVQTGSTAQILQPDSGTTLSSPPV
binder,measurement,setting,value
EWDAQYWHDLRQQYMLDYIQ [phage isolate EWDAQYWHDLRQQYMLDYIQ],binding result,[1],binds
ISPWREMSGWGMPWITAVPH [phage isolate ISPWREMSGWGMPWITAVPH],binding result,[1],binds
GSDHVRVDNYWWNGMAWEIF [phage isolate GSDHVRVDNYWWNGMAWEIF],binding result,[1],binds
PVTDWTPHHPKAPDVWLFYT [phage isolate PVTDWTPHHPKAPDVWLFYT],binding result,[1],binds
Ac-GDPDTCTMWGDSGRWYCFPADPGGGK-NH2 (disulfide 6-17 (inferred); not fully specified) [SEQ ID NO:301],Kd,[2],490 nM
same,VEGF-induced KDR phosphorylation in HUVECs,[3],≥ 50 % inhibition at 10 µM
same,Kd,[4],260 nM
AFEIEYWDSVRNKIWQHFPD [phage isolate AFEIEYWDSVRNKIWQHFPD],binding result,[1],binds
Ac-GSDHHCYLHNGQWICYPFAPGGGK-NH2 (disulfide 6-15 (inferred); not fully specified) [SEQ ID NO:314],Kd,[2],260 nM
same,Kd,[4],150 nM
Ac-GDDHMCRSPDYQDHVFCMYWDPGGGK-NH2 (disulfide 6-17 (inferred); not fully specified) [SEQ ID NO:295],Kd,[2],480 nM
same,Kd,[4],140 nM
"dimer 25 (D25) (disulfide I:6-I:13, II:6-II:16 (inferred); not fully specified (some residues, bridges); printed as Ac-AGPTWCEDDWYYCWLFGTGGGK{Ac-GDSRVCWEDSWGGEVCFRYDPGGGK[JJ-Glut-NH(CH_2)4-(S)-CH(NH_2)C(=O)-]-NH_2}-NH_2; also: heterodimer, chain 2 C-terminal Lys joined to linker) peptide 1: Ac-AGPTWCEDDWYYCWLFGTGGGK-NH2 peptide 2: Ac-GDSRVCWEDSWGGEVCFRYDPGGGK-NH2","IC50, VEGF-induced migration of HUVECs",[3],5 nM
EWYWTEHVGMKHGFFV [phage isolate EWYWTEHVGMKHGFFV],binding result,[1],binds
Ac-GDYPWCHELSDSVTRFCVPWDPGGGK-NH2 (disulfide 6-17 (inferred); not fully specified) [SEQ ID NO:293],Kd,[2],980 nM
same,Kd,[4],180 nM
VSKGSIDVGEGISYWEIIEL [phage isolate VSKGSIDVGEGISYWEIIEL],binding result,[1],binds
PEDSEAWYWLNYRPTMFHQL [phage isolate PEDSEAWYWLNYRPTMFHQL],binding result,[1],binds
LEEVFEDFQDFWYTEHIIVDR [phage isolate LEEVFEDFQDFWYTEHIIVDR],binding result,[1],binds
QIEYVNDKWYWTGGYWNVPF [phage isolate QIEYVNDKWYWTGGYWNVPF],binding result,[1],binds
WVTKQQFIDTYGRKEWTILF [phage isolate WVTKQQFIDTYGRKEWTILF],binding result,[1],binds
KKEDAQQWYWTDYVPSYLYR [phage isolate KKEDAQQWYWTDYVPSYLYR],binding result,[1],binds
Ac-AGWIECYHPDGICYHFGTGGGK-NH2 (disulfide 6-13 (inferred); not fully specified) [SEQ ID NO:269],Kd,[2],320 nM
same,VEGF-induced KDR phosphorylation in HUVECs,[3],≥ 50 % inhibition at 10 µM
same,Kd,[4],320 nM
"dimer 17 (D17) (not fully specified; N-terminal acetyl; C-terminal Lys(JJ-Glut)-NH2; N-terminal acetyl; contains J (8-amino-3,6-dioxaoctanoyl); C-terminal Lys joined to linker K) peptide 1: AQDWYYDEILGRGGRGGRGGK peptide 2: VCWEDSWGGEVCFRYDPGGGK","IC50, VEGF-induced migration of HUVECs",[3],~250 nM
DWYYDEILSMADQLRHAFLS [phage isolate DWYYDEILSMADQLRHAFLS],binding result,[1],binds
Ac-AQDWYYDEILSMADQLRHAFLSGGGK-NH2 (not fully specified) [SEQ ID NO:310],Kd,[4],50 nM
WYHDGLHNERKPPSHWIDNV [phage isolate WYHDGLHNERKPPSHWIDNV],binding result,[1],binds
Ac-AGWLECYAEFGHCYNFGTGGGK-NH2 (disulfide 6-13 (inferred); not fully specified) [SEQ ID NO:267],VEGF-induced KDR phosphorylation in HUVECs,[3],≥ 50 % inhibition at 10 µM
FDVVNWGDGIWYAYPS [phage isolate FDVVNWGDGIWYAYPS],binding result,[1],binds
Ac-AQRGDYQEQYWHQQLVEQLKLLGGK-NH2 (not fully specified) [SEQ ID NO:308],Kd,[2],310 nM
same,Kd,[4],5300 nM
Ac-AQEPEGYAYWEVITLYHEEDGDGGK-NH2 (not fully specified) [SEQ ID NO:305],Kd,[2],270 nM
same,VEGF-induced KDR phosphorylation in HUVECs,[3],≥ 50 % inhibition at 10 µM
same,Kd,[4],730 nM
EEQQALYPGCEPAEHWVYAG [phage isolate EEQQALYPGCEPAEHWVYAG],binding result,[1],binds
WLYDYWDRQQKSEEFKFWSQ [phage isolate WLYDYWDRQQKSEEFKFWSQ],binding result,[1],binds
ARMGDDWEEAPPHEWGWADG [phage isolate ARMGDDWEEAPPHEWGWADG],binding result,[1],binds
TKWGPNPEHWQYWYSHYASS [phage isolate TKWGPNPEHWQYWYSHYASS],binding result,[1],binds
Ac-AGIDFCKGMAPWLCADMGTGGGK-NH2 (disulfide 6-14 (inferred); not fully specified) [SEQ ID NO:311],Kd,[2],730 nM
same,Kd,[4],180 nM
MPPGFSYWEQAALHDDAQDL [phage isolate MPPGFSYWEQAALHDDAQDL],binding result,[1],binds
STNGDSFVYWEEVELVDHPY [phage isolate STNGDSFVYWEEVELVDHPY],binding result,[1],binds
RDEWGWTGVPYEGEMGYQIS [phage isolate RDEWGWTGVPYEGEMGYQIS],binding result,[1],binds
VCWEDSWGGEVCFRYDPGGGK [SEQ ID NO:337 monomeric free peptide (VCWEDSWGGEVCFRYDPGGGK)],"IC50, receptor activation assay",[3],1000 nM
Ac-GDGWACAKWPWGGEICQPSDPGGGK-NH2 (disulfide 6-16 (inferred); not fully specified) [SEQ ID NO:300],Kd,[2],1000 nM
same,Kd,[4],1500 nM
Ac-GDGSWCEMRQDVGKWNCFSDDPGGGK-NH2 (disulfide 6-17 (inferred); not fully specified) [SEQ ID NO:299],Kd,[2],620 nM
same,Kd,[4],180 nM
Ac-GDWWECK(ivDde)REEYRNTTWCAWADPGGGK-NH2 (disulfide 6-17 (inferred)) [Ac-GDWWECK(ivDde)REEYRNTTWCAWADPGGGK-NH2 (SEQ ID NO:366 having a blocked K)],VEGF-induced KDR phosphorylation in HUVECs,[3],≥ 50 % inhibition at 10 µM
Ac-GDNWECGWSNMFQKEFCARPDPGGGK-NH2 (disulfide 6-17 (inferred); not fully specified) [SEQ ID NO:303],Kd,[2],210 nM
same,Kd,[4],990 nM
Ac-AQAFPRFGGDDYWIQQYLRYTDGGK-NH2 (not fully specified) [SEQ ID NO:306],Kd,[2],530 nM
same,VEGF-induced KDR phosphorylation in HUVECs,[3],≥ 50 % inhibition at 10 µM
same,Kd,[4],250 nM
Ac-AQGDYVYWEIIELTGATDHTPPGGK-NH2 (not fully specified) [SEQ ID NO:307],Kd,[2],180 nM
same,VEGF-induced KDR phosphorylation in HUVECs,[3],≥ 50 % inhibition at 10 µM
WESDYWDQMRQQLKTAYMKV [phage isolate WESDYWDQMRQQLKTAYMKV],binding result,[1],binds
DALEAPKRDWYYDWFLNHSP [phage isolate DALEAPKRDWYYDWFLNHSP],binding result,[1],binds
DWYWREWMPMHAQFLADDW [phage isolate DWYWREWMPMHAQFLADDW],binding result,[1],binds
SYEQWLPQYWAQYKSNYFL [phage isolate SYEQWLPQYWAQYKSNYFL],binding result,[1],binds
FPSQMWQQKVSHHFFQHKGY [phage isolate FPSQMWQQKVSHHFFQHKGY],binding result,[1],binds
DWYWQRERDKLREHYDDAFW [phage isolate DWYWQRERDKLREHYDDAFW],binding result,[1],binds
AQMPPWWPLAVDALFDWFE [phage isolate AQMPPWWPLAVDALFDWFE],binding result,[1],binds
"Ac-AGPKWCEEDWYYCMITGTGGGK-NH2 (cysteine pairing not given here; also: C-terminal Lys fluorescein-labeled for some assays, unlabeled for others) [SEQ ID NO:264]",Kd,[4],27 nM
